From US8785135B2, “Mutant G-protein coupled receptors and methods for selecting them” (Heptares Therapeutics Limited, priority 2007, dated 2014)
Where a chain is given by its changes, count along the chain named. Names may count otherwise.

B1: S362A: NTR point mutant (protein, UniProt P20789 1-424, looked up, variant S362A)
Neurotensin receptor type 1: MHLNSSVPQGTPGEPDAQPFSGPQSEMEATFLALSLSNGSGNTSESDTAGPNSDLDVNTDIYSKVLVTAIYLALFVVGTVGNSVTAFTLARKKSLQSLQSTVHYHLGSLALSDLLILLLAMPVELYNFIWVHHPWAFGDAGCRGYYFLRDACTYATALNVASLSVERYLAICHPFKAKTLMSRSRTKKFISAIWLASALLAIPMLFTMGLQNRSGDGTHPGGLVCTPIVDTATVKVVIQVNTFMSFLFPMLVISILNTVIANKLTVMVHQAAEQGRVCTVGTHNGLEHSTFNMTIEPGRVQALRHGVLVLRAVVIAFVVCWLPYHVRRLMFCYISDEQWTTFLFDFYHYFYMLTNALFYVSAAINPILYNLVSANFRQVFLSTLACLCPGWRHRRKKRPTFSRKPNSMSSNHAFSTSATRETLY
B2: F358A: NTR point mutant (protein, UniProt P20789 1-424, looked up, variant F358A)
Neurotensin receptor type 1: B1 Neurotensin receptor type 1 with F358A, A362S
B3: C386A: NTR point mutant (protein, UniProt P20789 1-424, looked up, variant C386A)
Neurotensin receptor type 1: B1 Neurotensin receptor type 1 with A362S, C386A
B4: A120L: NTR point mutant (protein, UniProt P20789 1-424, looked up, variant A120L)
Neurotensin receptor type 1: B1 Neurotensin receptor type 1 with A120L, A362S
B5: T207A: NTR point mutant (protein, UniProt P20789 1-424, looked up, variant T207A)
Neurotensin receptor type 1: B1 Neurotensin receptor type 1 with T207A, A362S
B6: P399A: NTR point mutant (protein, UniProt P20789 1-424, looked up, variant P399A)
Neurotensin receptor type 1: B1 Neurotensin receptor type 1 with A362S, P399A
B7: Y351A: NTR point mutant (protein, UniProt P20789 1-424, looked up, variant Y351A)
Neurotensin receptor type 1: B1 Neurotensin receptor type 1 with Y351A, A362S
B8: S108A: NTR point mutant (protein, UniProt P20789 1-424, looked up, variant S108A)
Neurotensin receptor type 1: B1 Neurotensin receptor type 1 with S108A, A362S
B9: H393A: NTR point mutant (protein, UniProt P20789 1-424, looked up, variant H393A)
Neurotensin receptor type 1: B1 Neurotensin receptor type 1 with A362S, H393A
B10: V268A: NTR point mutant (protein, UniProt P20789 1-424, looked up, variant V268A)
Neurotensin receptor type 1: B1 Neurotensin receptor type 1 with V268A, A362S
B11: D113A: NTR point mutant (protein, UniProt P20789 1-424, looked up, variant D113A)
Neurotensin receptor type 1: B1 Neurotensin receptor type 1 with D113A, A362S
B12: F189A: NTR point mutant (protein, UniProt P20789 1-424, looked up, variant F189A)
Neurotensin receptor type 1: B1 Neurotensin receptor type 1 with F189A, A362S
B13: G209A: NTR point mutant (protein, UniProt P20789 1-424, looked up, variant G209A)
Neurotensin receptor type 1: B1 Neurotensin receptor type 1 with G209A, A362S
B14: L72A: NTR point mutant (protein, UniProt P20789 1-424, looked up, variant L72A)
Neurotensin receptor type 1: B1 Neurotensin receptor type 1 with L72A, A362S
B15: I116A: NTR point mutant (protein, UniProt P20789 1-424, looked up, variant I116A)
Neurotensin receptor type 1: B1 Neurotensin receptor type 1 with I116A, A362S
B16: M181A: NTR point mutant (protein, UniProt P20789 1-424, looked up, variant M181A)
Neurotensin receptor type 1: B1 Neurotensin receptor type 1 with M181A, A362S
B17: K397A: NTR point mutant (protein, UniProt P20789 1-424, looked up, variant K397A)
Neurotensin receptor type 1: B1 Neurotensin receptor type 1 with A362S, K397A
B18: A155L: NTR point mutant (protein, UniProt P20789 1-424, looked up, variant A155L)
Neurotensin receptor type 1: B1 Neurotensin receptor type 1 with A155L, A362S
B19: R392A: NTR point mutant (protein, UniProt P20789 1-424, looked up, variant R392A)
Neurotensin receptor type 1: B1 Neurotensin receptor type 1 with A362S, R392A
B20: L205A: NTR point mutant (protein, UniProt P20789 1-424, looked up, variant L205A)
Neurotensin receptor type 1: B1 Neurotensin receptor type 1 with L205A, A362S
B21: Nag7m: NTR mutant F358A+A86L+I260A+F342A (protein)
chain: TSESDTAGPNSDLDVNTDIYSKVLVTAIYLALFVVGTVGNSVTLFTLARKKSLQSLQSTVHYHLGSLALSDLLILLLAMPVELYNFIWVHHPWAFGDAGCRGYYFLRDACTYATALNVASLSVERYLAICHPFKAKTLMSRSRTKKFISAIWLASALLAIPMLFTMGLQNRSGDGTHPGGLVCTPIVDTATVKVVIQVNTFMSFLFPMLVISILNTVAANKLTVMVHQAAEQGRVCTVGTHNGLEHSTFNMTIEPGRVQALRHGVLVLRAVVIAFVVCWLPYHVRRLMFCYISDEQWTTALFDFYHYFYMLTNALAYVSSAINPILYNLVSANFRQVFLSTLACLCPGWRHRRKKRPTFSRKPNSMSSNHAFSTSATRETLY

Assay: Thermostability of NTR and mutants (3H-neurotensin binding)
Format: physicochemical
Details: Ligand(+) format
Procedure: FIG. 12 Flow chart showing the two different assay formats of ligand (+) and ligand (−) used to determine receptor thermostability.
• 1. 340 site-directed mutants have been made between residues 61-400 of NTR. • 2. Initially, all of these mutants were assayed for thermostability using an assay measuring ^3H-neurotensin (agonist) binding after the heating step. […] Mutants tested for thermostability by heating in the absence of the agonist were re-tested using a slightly different assay where the mutants were heated in the presence of ^3H-neurotensin (Ligand(+) format in FIG. 12). […] All of these also have increased thermostability. • 5. Preferred combinations are • a. Nag7m F358A+A86L+I260A+F342A Tm 51° C. (neurotensin bound) • b. Nag7n F358A+H103A+I260A+F342A Tm 51° C. (neurotensin bound) • Wildtype NTR has a Tm of 35° C. with neurotensin bound.

Molecule | thermostability, heated in the presence of 3H-neurotensin
B1 | improved thermostability
B2 | improved thermostability

Same assay, conditions: heated in the absence of the agonist

Molecule | thermostability, 3H-neurotensin (agonist) binding after the heating step
B3 | small but significant increase in thermostability
B4 | small but significant increase in thermostability
B5 | small but significant increase in thermostability
B6 | small but significant increase in thermostability
B7 | small but significant increase in thermostability
B1 | small but significant increase in thermostability
B8 | small but significant increase in thermostability
B9 | small but significant increase in thermostability
B2 | small but significant increase in thermostability
B10 | small but significant increase in thermostability
B11 | small but significant increase in thermostability
B12 | small but significant increase in thermostability
B13 | small but significant increase in thermostability
B14 | small but significant increase in thermostability
B15 | small but significant increase in thermostability
B16 | small but significant increase in thermostability
B17 | small but significant increase in thermostability
B18 | small but significant increase in thermostability
B19 | small but significant increase in thermostability
B20 | small but significant increase in thermostability

Same assay, conditions: neurotensin bound

Molecule | Tm
B21 | 51 °C
